Test results from the Immune Epitope Database (IEDB).

molecular target: HLA-A*03:01; test: IEDB peptide-MHC binding, purified MHC/competitive/fluorescence; filed as Kd, often an IC50 or EC50 that approximates it; ≥ and ≤ were set here for values at or beyond the usual limits of such assays; conditions: source organism: Coxiella burnetii

Sequence | Kd [µM]
ASFQNYLNDY | ≥ 1000
ATSNLIYKLK | ≥ 5
GVDRFITYK | ≥ 5
ISYDRFTVGK | ≥ 5
KLILFVYRY | ≥ 50
KTFVYPMGLY | ≥ 5
LLSTLCLYRK | ≥ 50
LSATFITSK | ≥ 5
SLFANMNGHY | ≥ 50
VLDCNYLSK | ≥ 5

molecular target: HLA-A*24:02; test: as above; conditions: source organism: Coxiella burnetii

Sequence | Kd [µM]
GYHSITPYLF | ≥ 5
IYDDRLLFEF | ≥ 5
LYDDEFKFL | ≥ 5
NFSDYIWHF | ≥ 5
QYLQYLWPL | ≥ 5
SFVPKFFLTF | ≥ 5
TYRHNKKLL | ≥ 50
TYRVLNYKDL | ≥ 50
WYVVNNNYL | ≥ 5

molecular target: HLA-B*44:02; test: as above; conditions: source organism: Coxiella burnetii

Sequence | Kd [µM]
EEFVKTQSY | ≥ 5
FEALHLLYAL | ≥ 1000
GEEATAFLRY | ≥ 50
IERVFYYFPL | ≥ 1000
IEVVKKYMDY | ≥ 1000
KDIQSIVHHY | ≥ 1000
METPPQSPDF | ≥ 1000
MEVRDLLNSY | ≥ 5
NEIETATRY | ≥ 5
REMYSRRRMY | ≥ 5

molecular target: HLA-B*07:02; test: as above; conditions: source organism: Coxiella burnetii

Sequence | Kd [µM]
KPLQVINRKY | ≥ 1000
LPQKPWWKF | ≥ 1000
LPRNRYRLVF | ≥ 5
LPRRHNFYNY | ≥ 1000
SPHPRVNQF | ≥ 5
TPDFPQLFF | ≥ 50
TPTFVIGNKA | ≥ 1000

molecular target: HLA-A*01:01; test: as above; conditions: source organism: Coxiella burnetii

Sequence | Kd [µM]
ETYNSINKY | ≥ 1000
FFEDFTHRY | ≥ 1000
HTYYLIGFLY | ≥ 50
KTEQDKLSY | ≥ 50
LTLLLNWVNY | ≥ 50
MVEEKYNYFY | ≥ 5
QSGWTIHHY | ≥ 1000
SLESGFTYY | ≥ 5
VSDATVAKWY | ≥ 50
VTLVEFFDY | ≥ 1000

molecular target: HLA-A*02:01; test: as above; conditions: source organism: Coxiella burnetii

Sequence | Kd [µM]
FLFFYSGLIL | ≥ 5
FLIAVFARHL | ≥ 5
IMIDRLIEQL | ≥ 5
LLWHGVSTL | ≥ 5
MLWLPLLLIL | ≥ 5
NMFQHLPYL | ≥ 5
RMYISFFPL | ≥ 5
VIDDLIVYRV | ≥ 50
YLLDRCPFL | ≥ 5
YLVNHPEVL | ≥ 50
